# B1: Programmed cell death 6-interacting protein (Homo sapiens), Q8WUM4 (parent)
# chain: MATFISVQLKKTSEVDLAKPLVKFIQQTYPSGGEEQAQYCRAAEELSKLRRAAVGRPLDKHEGALETLLRYYDQICSIEPKFPFSENQICLTFTWKDAFDKGSLFGGSVKLALASLGYEKSCVLFNCAALASQIAAEQNLDNDEGLKIAAKHYQFASGAFLHIKETVLSALSREPTVDISPDTVGTLSLIMLAQAQEVFFLKATRDKMKDAIIAKLANQAADYFGDAFKQCQYKDTLPKEVFPVLAAKHCIMQANAEYHQSILAKQQKKFGEEIARLQHAAELIKTVASRYDEYVNVKDFSDKINRALAAAKKDNDFIYHDRVPDLKDLDPIGKATLVKSTPVNVPISQKFTDLFEKMVPVSVQQSLAAYNQRKADLVNRSIAQMREATTLANGVLASLNLPAAIEDVSGDTVPQSILTKSRSVIEQGGIQTVDQLIKELPELLQRNREILDESLRLLDEEEATDNDLRAKFKERWQRTPSNELYKPLRAEGTNFRTVLDKAVQADGQVKECYQSHRDTIVLLCKPEPELNAAIPSANPAKTMQGSEVVNVLKSLLSNLDEVKKEREGLENDLKSVNFDMTSKFLTALAQDGVINEEALSVTELDRVYGGLTTKVQESLKKQEGLLKNIQVSHQEFSKMKQSNNEANLREEVLKNLATAYDNFVELVANLKEGTKFYNELTEILVRFQNKCSDIVFARKTERDELLKDLQQSIAREPSAPSIPTPAYQSSPAGGHAPTPPTPAPRTMPPTKPQPPARPPPPVLPANRAPSATAPSPVGAGTAAPAPSQTPGSAPPPQAQGPPYPTYPGYPGYCQMPMPMGYNPYAYGQYNMPYPPVYHQSPGQAPYPGPQQPSYPFPQPPQQSYYPQQ
# partner: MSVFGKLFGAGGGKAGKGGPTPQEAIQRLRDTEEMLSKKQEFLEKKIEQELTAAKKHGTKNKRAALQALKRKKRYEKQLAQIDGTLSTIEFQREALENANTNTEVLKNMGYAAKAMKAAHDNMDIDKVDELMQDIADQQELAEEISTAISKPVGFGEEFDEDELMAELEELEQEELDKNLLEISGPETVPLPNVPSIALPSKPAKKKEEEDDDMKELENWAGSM
# Variants of: B1
# Conditions: with chm4b_human CHMP4B
row,Variant,effect of a mutation on the interaction
1,I212D,disrupting interaction
